Experimental findings from article PMC6508887 are described below.

Series [1] addresses 2-oxoglutarate:ferredoxin oxidoreductase from Magnetococcus marinus MC-1, αβ heterodimer (catalytic unit) (Magnetococcus marinus MC-1).
Substrate in series [2]: CC(C)(COP(=O)(O)OP(=O)(O)OC[C@H]1O[C@@H](n2cnc3c(N)ncnc32)[C@H](O)[C@@H]1OP(=O)(O)O)[C@@H](O)C(=O)NCCC(=O)NCCS
Kind of series: steady-state 2-oxoglutarate oxidation assay. The format is biochemical, Magnetococcus marinus. Particulars: pH 8.5, 2-oxoglutarate oxidation direction.

Substrate in series [3]: O=C(O)CCC(=O)C(=O)O
In words: steady-state 2-oxoglutarate oxidation assay. The format is biochemical, Magnetococcus marinus. The note with it: pH 8.5, apparent KM.

“Magnetococcus marinus MC-1 ferredoxin 1 (natural protein)”: the KM of WT MmOGOR for MmFd1, CO2 reduction, pH 7.0 in series [1] came to 1.3 μM.

B1: MmOGOR (Magnetococcus marinus MC-1) (protein)
chain 1: MEKKDLIIRVAGEGGEGIISSGDFIAAACARAGLEVYTFKTFPAEIKGGYAMYQVRASSEKLYCQGDTFDVFCAFNGEAYEQNKDKIKPGTAFVYDYPGGDFEPDEIPEGVFAYPIPMSQTAKEMKSYRSKNMVALGALSELFNISENTLKEVLSDKFGKKGEEVLAFNLEAFDKGKALAKALTKADPFRVADPQEPKDVIIMAGNDAVGLGGILGGLEFFSAYPITPATEVAKYVATHLPKCGGDLVQAEDEIASIAQVLGASYAGKKSMTATSGPGLALMSEMLGMAHMSETPCLVVDVQRGGPSTGLPTKHEQSDLFLAIHGGHGDSPRIVLSVEDVKDCISMTVDGLNLAEKYQAPVIVLSDGSLAFSTQTIPRPKPEDFTIINRKTWDGQGTYKRYELTEDNISPMAAPGTPNAKHIATGLEHGETGAPNYSPANHELMHRKRFNKQNSVLDFYKNMEVEGVEGEADVGIITWGSTIGVVREAMQRLTAEGLKVKAMYPKLLWPMPVADYDAFGATCKKVIVPEVNFQGQLSHFIRAETSIKPIPYTICGGLPFTPEMIVNRVKEEIQ
chain 2: MTVEAFHKMENMKPKDYKSEVPTTWCPGCGHFGILNGVYRAMAELGIDSTKFAAISGIGCSSRMPYFVDSYKMHTLHGRAGAVATGTQVARPDLCVVVAGGDGDGFSIGGGHMPHMARKNVNMTYVLMDNGIYGLTKGQYSPTSRPEMTAYTTPYGGPENPMNPLLYMLTYGATYVAQAFAGKPKDCAELIKGAMEHEGFAYVNIFSQCPTFNKIDTVDFYRDLVEPIPEDHDTSDLGAAMELARRPGGKAPTGLLYKTSAPTLDQNLAKIRERLGGHVGYDKNKIIALAKP
For the molecule B1, in series [2], the Km stood at 6.8 µM, the catalytic constant (kcat) amounted to 24.7 s⁻¹ and the kcat/Km amounted to 3.6e+06 M⁻¹ s⁻¹. Also, in series [3], the Km was determined as 4400 µM, the kcat stood at 30.3 s⁻¹ and the kcat/Km was 6900 M⁻¹ s⁻¹.

By Km is commonly meant the substrate concentration at which the rate is half of its maximum. Usually kcat stands for the number of substrate molecules converted per active site and unit of time at saturation. By kcat/Km is commonly meant the turnover number divided by the Michaelis constant.
